The results in this text go back to PMC11732463.

Series [1] is described as follows: Western blot of microsomal fractions. The settings on record: glycan lost; control: WT CerS6 microsomes. In general terms: In western blotting, separated proteins are transferred to a membrane and probed.
The nature of series [2]: in vitro microsomes, NBD-sphingosine + C16:0-CoA, HPLC. The settings on record: glycan lost; control: WT CerS6 microsomes.
Series [3] is described as follows: in situ 17C-sphingosine labeling, LC/MS of 17C-Sph-C16:0-ceramide. The settings on record: glycan lost; control: WT CerS6 in CerS6 KO HCT116.

B1: ceramide synthase 6 (CerS6): N18A (protein)
parent chain: MAGILAWFWNERFWLPHNVTWADLKNTEEATFPQAEDLYLAFPLAFCIFMVRLIFERFVAKPCAIALNIQANGPQIAPPNAILEKVFTAITKHPDEKRLEGLSKQLDWDVRSIQRWFRQRRNQEKPSTLTRFCESMWRFSFYLYVFTYGVRFLKKTPWLWNTRHCWYNYPYQPLTTDLHYYYILELSFYWSLMFSQFTDIKRKDFGIMFLHHLVSIFLITFSYVNNMARVGTLVLCLHDSADALLEAAKMANYAKFQKMCDLLFVMFAVVFITTRLGIFPLWVLNTTLFESWEIVGPYPSWWVFNLLLLLVQGLNCFWSYLIVKIACKAVSRGKVSKDDRSDIESSSDEEDSEPPGKNPHTATTTNGTSGTNGYLLTGSCSMDD
As for B1, in series [1], the expression_or_secretion result was “increases”. The enzymatic_activity entry in series [2] was “decreases, N18A CerS6 activity is not statistically different than that of the LacZ microsomes”; in series [3], “decreases, was approximately equal to that of LacZ expressing cells”.
